Experimental data from article PMC9005727, “ComFC mediates transport and handling of single-stranded DNA during natural transformation” (Nature Communications, 2022).

B1: XV2 62-mer ssDNA (ssDNA)
DNA: TGGGTGAACCTGCAGGTGGGCAAAGATGTCCTAGCAATGTAATCGTCAAGCTTTATGCCGTT

Key:
ComFC (His6-ComFC) = biological target: T1, ComFC (His6-ComFC) (Helicobacter pylori, UniProt O26008); test: differential scanning fluorimetry (SYPRO Orange); format: binding; details: 20 mM Tris-Cl pH 7.5, 200 mM NaCl
T1 construct: gene HP_1473; full length, 191 residues, His6 tag kept (six His codons added at 5' end; also called ComFC-6His), pET21a, E. coli BL21(DE3) Gold
T1 sequence (O26008 1-191): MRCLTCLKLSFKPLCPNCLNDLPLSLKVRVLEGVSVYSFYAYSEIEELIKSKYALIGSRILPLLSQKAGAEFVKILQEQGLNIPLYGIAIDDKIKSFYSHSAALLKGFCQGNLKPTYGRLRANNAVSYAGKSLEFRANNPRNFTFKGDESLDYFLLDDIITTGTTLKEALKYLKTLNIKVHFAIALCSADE

ComFC WT (His6-ComFC) = biological target: T2, ComFC WT (His6-ComFC) (Helicobacter pylori 26695, UniProt O26008 1-191); test: EMSA; EMSA: 10 mM Tris-HCl pH 7.5, 50 mM KCl, 1 mM DTT, 0.1 ug/ul BSA, 4 °C, 30 min; native 6% TBE-PAGE; details: protein: recombinant; tags: His6 (text: codons added at 5' end, also written ComFC-6His); label: 5'-Cy5
T2 sequence: T1 sequence (O26008 1-191)

ComFC T165A = ComFC T165A (Helicobacter pylori 26695, UniProt O26008 1-191, T165A); test: EMSA; no significant difference from WT; details: protein: recombinant; label: 5'-Cy5

Molecule	dTm (ComFC (His6-ComFC))	apparent K (half saturation) (ComFC WT (His6-ComFC))	binding result (ComFC T165A)
Nc1ncnc2c1ncn2[C@@H]1O[C@H](COP(=O)(O)OP(=O)(O)O)[C@@H](O)[C@H]1O [ADP]	ADP addition also resulted in an increase in melting temperature	–	–
B1	–	300 nM	binds
